Source: paper PMC3857192

Molecular target: PAC-1
Assay: flow cytometry on cells
Conditions: read off a plot
[1] = no treatment (CON), parent: est. 0
[2] = FITC-PAC-1 5 µg/ml, DTT + PT25-2, parent: est. 36
[3] = FITC-PAC-1 5 µg/ml, DTT, parent: est. 13
[4] = FITC-PAC-1 5 µg/ml, mAb PT25-2, parent: est. 26

Row | response (DTT + PT25-2, parent: est. 36) [NNFI] | response (DTT, parent: est. 12) [NNFI] | response (mAb PT25-2, parent: est. 26) [NNFI] | response [1] [NNFI] | response [2] [NNFI] | response [3] [NNFI] | response [4] [NNFI] | response (FITC-PAC-1 5 µg/ml, no treatment (CON), parent: est. 0) [NNFI] | Substance
1 | 37 | 28 | 34 | 24 |  |  |  |  | normal integrin αIIbβ3 (from UniProt P08514;P05106) αIIb:F992A; αIIb:F993A
2 | 38 | 23 | 5.5 | 2.7 |  |  |  |  | normal integrin αIIbβ3 (from UniProt P08514;P05106) αIIb:K321C; αIIb:F992A; αIIb:F993A; β3:E358C
3 | 20 | 13 | 9.9 | 5.5 |  |  |  |  | normal integrin αIIbβ3 (from UniProt P08514;P05106) αIIb:K321C; αIIb:F992A; αIIb:F993A; β3:R360C
4 |  |  |  |  | 38 | 19 | 6.2 | 0.7 | normal integrin αIIbβ3 (from UniProt P08514;P05106) αIIb:K321C; β3:E358C
5 |  |  |  |  | 28 | 14 | 9.7 |  | normal integrin αIIbβ3 (from UniProt P08514;P05106) αIIb:K321C; β3:R360C
